From article PMC2892321 come the findings set out here.

The test concerns the target postsynaptic density 95 (PSD95), wild type (mouse (endogenous in hippocampus and spinal cord)) (UniProt Q62108). In words: co-IP.

Sequence of postsynaptic density 95 (PSD95), wild type (mouse (endogenous in hippocampus and spinal cord)) (Q62108 whole entry): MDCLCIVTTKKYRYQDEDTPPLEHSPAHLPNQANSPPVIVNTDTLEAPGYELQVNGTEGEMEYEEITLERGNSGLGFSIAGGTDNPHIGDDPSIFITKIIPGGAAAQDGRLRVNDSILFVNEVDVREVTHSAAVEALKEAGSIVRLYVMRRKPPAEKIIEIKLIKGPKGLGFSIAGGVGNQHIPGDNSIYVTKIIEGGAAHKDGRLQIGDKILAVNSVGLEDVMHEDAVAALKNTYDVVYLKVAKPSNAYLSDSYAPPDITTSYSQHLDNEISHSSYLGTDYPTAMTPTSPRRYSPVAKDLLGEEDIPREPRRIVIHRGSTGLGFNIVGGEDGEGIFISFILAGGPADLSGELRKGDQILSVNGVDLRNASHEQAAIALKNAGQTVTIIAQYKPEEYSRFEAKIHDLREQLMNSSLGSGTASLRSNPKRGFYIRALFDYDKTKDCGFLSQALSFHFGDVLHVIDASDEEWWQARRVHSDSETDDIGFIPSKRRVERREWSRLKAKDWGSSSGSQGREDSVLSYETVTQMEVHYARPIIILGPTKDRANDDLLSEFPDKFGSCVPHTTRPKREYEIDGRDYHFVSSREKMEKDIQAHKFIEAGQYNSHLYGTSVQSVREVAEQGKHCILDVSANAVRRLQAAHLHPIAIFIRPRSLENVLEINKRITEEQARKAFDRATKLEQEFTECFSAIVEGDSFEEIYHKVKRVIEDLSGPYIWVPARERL

Regarding “phosphatidylinositol-3-kinase-C2α (PI(3)K-C2α) (from UniProt Q61194 1-1686) (enzyme)”, the PI(3)K-C2α/PSD95 ratio (densitometry), ipsilateral to formalin came to 0.053 and the PI(3)K-C2α/PSD95 ratio (densitometry), naive is 0.019.
